{"source": "the DeepSol protein solubility set"}
{"test": "soluble on expression in E. coli; label from the status in PepcDB or PDB records"}
{"sequence": "MGSDKIHHHHHHMRADIIKVNHLLEIEMENNIGKEYLPSRLEEISDEHWHISMPMRKGMYITMRVGQKIRIVLRYRNTMFAATTVIAARRRGHIPVLIVSKPKDLIAINQKRTYVRISVAIPVAFRLLLADGEKGELLQGVTGDISAGGMLLLSPQDMEKDQKIEVEIKLPDSDSIFCQAHVVRVLGKASEEGSNNKYAIEYDDINEGQRDRIFRFIFDKQREWLRKGVTE", "soluble on expression in E. coli": "not soluble"}
{"sequence": "MGSDKIHHHHHHMAFLDVKGIRKTFPGVVALDGVDLEIELGAVHVLAGENGAGKSTLIRALTGLLPLDGGSIHIDGRDALTDRSAFDLVAYVPQELSLFPHMSVAENLFMPFAKAGFGGRVLPYAEMNRQAGAILERFSIKARPEQKVKSIAVSDQQLLQIARATTNKRLKVLILDEPTSSLTTQEIDRLFRILRQFRDNGTAIVFVSHKMEEIFELGTTVTVLRNGKTVGHRPMAAVSEPELIRLMSGDEVQLDQLFQPACAPGETIVTVDGLCGQGFHDISFALRRGEILGFAGLVGAGRSEVMQSMFGFKKPTGGTVLLKGRPLKLGKPSAAVEAGMLYLSEERRLHGILPVLSLRENIGISVLDQTSRGGVISTARERGVVGEVIASYDIKASSPEKKIMFLSGGNQQKAIIGRAMARKPDVLIFDEPTRGIDIRNKVEIYKIMKRLAEDGVAIILVSSEMAELKRCASRIITMYSGKLSGEFATATTDTHTLVGAIIGSAQSGQPPAGAPSPVADLETGARCHVL", "soluble on expression in E. coli": "not soluble"}
{"sequence": "MGSDKIHHHHHHMDGKVMAGTRIEKVMANIRQRITSRSLVPGARLPSVRALAKTMQLSTSTIVEAYDRLVADGTISSRPGSGFFVAGPLAPLSLADIEPRLDRAVDPLWVSRQALDDGSALAKPGCGWLPASWMPQEALRRAMRGLARADDALLTDYGSPMGLLPLRQLLSRRLAEHGVQAGASQIMLTDSGTQAIDLLCRFLLQPGDTVVVDDPCYFNFHALLRAHRVKIVGVPYTPAGPDLPLFEQALKEHQPRLYITNSAIHNPTGARLSAVSAHRLLMLAEQPGLTIIEDDIFADFETQAAPRLAAFDGLNRVVQIGSFSKTLSASVRCGFIAAPRAWVEALTDLKIATAFGGTHFSAALVLSLLTDGSYRKHVEALRQRLAAAVPEAATRLRSIGCMPWIEPQAGMFLWCRLPEGTDAADVAQRALARQVVLAPGNVFSSSQNASGFMRFNVSQMVGPQVMTVLADALR", "soluble on expression in E. coli": "not soluble"}
{"sequence": "MSRIEFIRKEEKKYHDFCYENYKLFEEGSWLYKPVKTVIELLPILDERTSPKVLDLGSGVGRNSIPIAKEIKNKNGKVICVDLLDSALDKLKLYSKEYEVEEVIETMKADIGHYDIAKNEYDLIVAVSTLEHVESENVFEKVIKKMASGTKNEGINCIIVNSEVEEIDISTNEKLDAMMEVNMKTKDMLSKLRQSYNGWEIVNQLVKPLEYKIVRDERDVLLKTNAITFAVKKKLEHHHHHH", "soluble on expression in E. coli": "not soluble"}
{"sequence": "MIHAARSLAGSRAGPLLALLLLGLATARAEPVDGLPLRADGDGRWSLAAGRYAGNFVIDRPLHLRCEAGAELDGGGHGSLLTLTSPGITVEGCRLRNWGRNLTELDAAIFVGKAASGAVIRGNDLRGAGFGVWLDATVGAQVLDNRIEGDESVRSQDRGNGIHLYAVKDALVRGNRVSHTRDGVYIDTSNDSSIEANRFEELRYGVHYMFTHNSRVTDNLTRRTRTGYALMQSRKLTVTGNRSIDDENYGILMNYITYSTLAGNRVEGVRSGSTGDAMISGAEGKALFIYNSLFNRIEGNSFADSALGIHLTAGSEDNRIAGNAFIGNRQQVKYVASREQEWSADGRGNYWSDYLGWDRDDDGLGDVAYEPNDNVDRLIWLYPQVRLLLNSPSIELLRWVQRAFPVVRSPGVRDSHPLMRMPAAEPRPLEHHHHHH", "soluble on expression in E. coli": "not soluble"}
{"sequence": "MFALVLFVCYLDGGCEDIVVDVYNTEQQCLYSMSDQRIRQGGCFPIEDFIDGFWRPAQEYGDFLEHHHHHH", "soluble on expression in E. coli": "soluble"}
{"sequence": "MFQIGEALMGQGSELAHVDLMIGDKGGPVGQAFANGLTQLSAGHTPLLSVIRPNLPPKPSTLIIPKVTVKNMDQAARIFGPAQSAVAKAVADSVEEGVIPKDQVEDLVIVASVFIHPEAQDYNKIYRYNYGATKLAIKRALEGFPDIDTVLEESNKSTHAIMGFKVTRLWDPPYLQIAFDNPNLEFVLSAISEIPKSDHVIIEAGTPLIKRYGTDVISKIRQVRPDAFIVADLKTLDTGNLEARMVADAAGDAIVVSALAPISTIDKLIEEAHKTGIYAVMDTLNQQDPISVLKQLKVMPDVIELHRGIDIEGTEHAWGNIGEIKKIAPKALVAVAGGVRLDKVPVALSQGADILVVGRAITNAKDVREMAEQFINSLNKPEIDQFRVMTDF", "soluble on expression in E. coli": "not soluble"}
{"sequence": "MGSDKIHHHHHHMSMDKELITAQALAEALHLSVETIWRYTREKKIPCIELGNKQYRYKKDDVIKALSNGSIQESASSYETQEPRKLTYQDYLLLPEEPGYHFEILDGMLIKEPAPNVLHQRVSRRLQRILEDYFWKVDPKGEVFDAPLDVTLHDVNVVQPDLLYVASEQEVIVKDTRIDGPPMLVVEIMSPSTSRKDRLQKRRIYQEARVEHYWLVNPQEKMLECFAWRDGVYALVAGGMEEELVEHPDFPGLSIALRALWNREI", "soluble on expression in E. coli": "not soluble"}
{"sequence": "MALLGPKEQEIVRERLANLTRDVEMVLFTDSSTLIAPGKEPCLYCKETKQLLEELSALSDKLHLVVYDLATPEGREKAGAYKVEAAPTLILREKGSEAINLRYRGIPAGYEFASLLEDIEMLGRDGHGLPENVVQELNDLPEEVVLQVFVTPTCPYCPQAVRTAHRLAYASPKVWGEMIEANEFPALSDRYRIHGVPDTIINHGKERVLGAQPLSQFLQAIRKAVGVRA", "soluble on expression in E. coli": "soluble"}
{"sequence": "RMTVWQLDLQKRLVQVDGDVARLIGLSHVPPELPVAVFENYVDPEDLPLLRAAEAAALRGEPMQVELRLVLESGGRRWLRLMGEPRPDA", "soluble on expression in E. coli": "not soluble"}
{"sequence": "MIKNPILRGFNPDPSICRADTDYYIATSTFEWFPGVQIHHSKDLVNWHLVAHPLNRTSLLDMKGNPNSGGIWAPDLSYHDGKFWLIYTDVKVTDGMWKDCHNYLTTCESVDGVWSDPITLNGSGFDASLFHDNDGKKYLVNMYWDQRTYNHNFYGIVLQEYSDKEKKLIGKAKIIYKGTDIKYTEGPHIYHIGDYYYLFTAEGGTTYEHSETVARSKNIDGPYEIDPEYPLLTSWHDPRNSLQKCGHASLVHTHTDEWYLAHLVGRPLPVGNQPVLEQRGYCPLGRETSIQRIEWVDNWPRVVGGKQGSVNVEAPKIPEVKWEKTYDEKDNFDSDKLNINFQSLRIPLTENIASLKAKKGNLRLYGKESLTSTFTQAFIARRWQSFKFDASTSVSFSPDTFQQAAGLTCYYNTENWSTIQVTWNEDKGRVIDIVCCDNFHFDMPLKSNVIPIPKDVEYIHLKVEVRVETYQYSYSFDGINWSKVPAIFESRKLSDDYVQGGGFFTGAFVGINCIDITGNNKPADFDYFCYKEL", "soluble on expression in E. coli": "soluble"}
{"sequence": "MVLVVGSGAGGATLARELAIRGIDVTVIERGPCVKDSDAFLCYDEAPDVDILRTSCAGGSTLVAAGNAVRVLENTLKDYGVDITEDLHAIEAELRVRELPDTHTGRGTALIMDAAESLGLGVKKMPKFIDPDKCRPCGKCSFGCPRAAKWSARRFLDEAVEHGAVLIEETEAKNIIVRNGSVSGLRTSRGDFHDETVVLAAGAIETPRILMRAGIDAGNGLFMDTFVTVGGILEGVGFCDEVQMNALIELDGVILSPHFSTLLFPEDDRRNVLGIMVKIADERSGRVEADRIVKHHTVRDISLLSGGAAIAGSILSRAGVGAGTLRSTRPRGAHPGGTASLGEVVDENLETSIEGLFVADASVLPAAPGAPPILTIMALARRLARHIVSVLLEHHHHHH", "soluble on expression in E. coli": "not soluble"}
{"sequence": "MKKERVDVLAFNQGLFETREKAKRSVMAGLVYNDKNERLDKPGEKISVETPLHTKGQVMPYVSRGGLKLEKALNVFAINVQGKTMLDIGSSTGGFTDVALQNGARLSYALDVGYNQLAWKIRQDERVVVMERTNFRYSKPEDFTEGVPDIATIDVSFISLRLILPPLHDILKKGGSVVALIKPQFEAGKEFVGKKGIVRDPETHQMVVEEITRFAMNNGYDVKNLDFSPITGGEGNIEFLAHLVSVEGEGSYQAPESIEEVVAHAHQKLAE", "soluble on expression in E. coli": "not soluble"}
{"sequence": "MIEQCWSEIQEEQSPTSQIGQLRVQGLRDKRVIVEYIPLILKTFLLSKTSGVGPLIIPVRCFTCGKVIGDKYYEFKRRVEAGEDPEKVLDDLGLERYCCRRMLLSHVELIDDIMHYKVY", "soluble on expression in E. coli": "soluble"}
{"sequence": "MGSDKIHHHHHHMPWLRFCDRDRSVHMLVAMLDLTREKAEQVMRRGPWLASMTEPFRTELLRHAHLQKFAPDQVVYRHGDAVGGMYGLVAGSLTINSAPPDAASRLIHLGMPGAWTGEGPFLTGQPRRVELRALGGAWMMHVPLDALEQMMARDPGVSRAIAMNTVFTVDVLLRIIHDLQKRAVGRRIASVLQRASWVGDMPIPLSQTDLGIMANASRQQVNTAMQRFARAGWVSYTYRSVTVSNSQALRRFSEGDGSEW", "soluble on expression in E. coli": "not soluble"}
{"sequence": "MASPSKAVIVPGNGGGDVTTHGWYGWVKKELEKIPGFQCLAKNMPDPITARESIWLPFMETELHCDEKTIIIGHSSGAIAAMRYAETHRVYAIVLVSAYTSDLGDENERASGYFTRPWQWEKIKANCPYIVQFGSTDDPFLPWKEQQEVADRLETKLHKFTDCGHFQNTEFHELITVVKSLLKVPALEHHHHHH", "soluble on expression in E. coli": "soluble"}
{"sequence": "MTHATVTQTVHYHNGETGGQMQADTTNEVNFDRTVTIDTVTGEITHYGDWEADGDDYFKGFDSPTFDGYFADVQHTGEVKGVDPEQGTVDDVTITYYALEHHHHHH", "soluble on expression in E. coli": "soluble"}
{"sequence": "MDTTEFDEIRPYNDEELPQIFEELIADPAFQKAATDAIPNVPFELLAQKIRACKSKLDFQETFCYGILWKIAADHTDGLTLDHTAVPDKSKAYTYVSNHRDIILDSGFLSILLIDQGMDTVEIAIGDNLLVYPWIKKLVRVNKSFIVQRALTMRQMLESSARMSRYMHYTINEKNQSIWIAQREGRAKDSNDRTQDSVLKMLAMGGEGDLIDRLMEMNIAPLAISYEYDPCDFLKAQEFQLKRDIEGYKKTTQDDLISMQTGLFGYKGKVHFQTAPCINDRLAQLDRSLPKQELFSSISACIDQRIHSNYRIYSGNYVAYDLLKGTSEFAGHYTPEEKQRFVTYIEQQLGKIKIPNKDEDFLRGKLLLMYANPLVNYLAACQ", "soluble on expression in E. coli": "not soluble"}
{"sequence": "LPQSVSRAAITAAYRRPETEAVSMLLEQARLPQPVAEQAHKLAYQLADKLRNQKNASGRAGMVQGLLQEFSLSSQEGVALMCLAEALLRIPDKATRDALIRDKISNGNWQSHIGRSPSLFVNAATWGLLFTGKLVSTHNEASLSRSLNRIIGKSGEPLIRKGVDMAMRLMGEQFVTGETIAEALANARKLEEKGFRYSYDMLGEAALTAADAQAYMVSYQQAIHAIGKASNGRGIYEGPGISIKLSALHPRYSRAQYDRVMEELYPRLKSLTLLARQYDIGINIDAEESDRLEISLDLLEKLCFEPELAGWNGIGFVIQAYQKRCPLVIDYLIDLATRSRRRLMIRLVKGAYWDSEIKRAQMDGLEGYPVYTRKVYTDVSYLACAKKLLAVPNLIYPQFATHNAHTLAAIYQLAGQNYYPGQYEFQCLHGMGEPLYEQVTGKVADGKLNRPCRIYAPVGTHETLLAYLVRRLLENGANTSFVNRIADTSLPLDELVADPVTAVEKLAQQEGQTGLPHPKIPLPRDLYGHGRDNSAGLDLANEHRLASLSSALLNSALQKWQALPMLEQPVAAGEMSPVINPAEPSSSVDKLAAALEHHHHHH", "soluble on expression in E. coli": "soluble"}
{"sequence": "SRNICYDAFVSYSERDAYWVENLMVQELENFNPPFKLCLHKRDFIHGKWIIDNIIDSIEKSHKTVFVLSENFVKSEWCKYELDFSHFRLFDENNDAAILILLEPIEKKAIPQRFCKLRKIMNTKTYLEWPMDEAQREGFWVNLRAAIKS", "soluble on expression in E. coli": "soluble"}
